# Assay results reported in the supplement of paper PMC12636428.
# Tested on: Saccharomyces cerevisiae
# Assay: transcriptional activation domain activity (GFP:mCherry ratio, weighted mean of sorted bins, harmonized to initial dataset scale) (arbitrary fluorescence ratio units); higher = stronger transcriptional activation
# Settings: beta-estradiol 1 µM; induction time 4 h
# Outline: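 For this assay, yeast diploids with a GFP reporter carried barcoded protein tiles at URA3, each fused to an estradiol-inducible synthetic transcription factor. Induction was a 1:5 dilution into SC with 1 uM beta-estradiol for 4 hours at 30 °C, followed by sorting into 8 bins by GFP:mCherry ratio and barcode sequencing. Tiles under 50 reads were dropped, and activation activity was calculated as the read-weighted mean of bin median fluorescence, averaged across barcodes and linearly mapped onto the initial dataset scale.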
row,Sequence,transcriptional activation domain activity
1,TRYCWGFINLWYSSLYLSGSIILNLAAFFLLPVHLFVSLMQTHLLQWELLLAF,59500
2,KSKKRKTGEQSDEDAVAAKKRKKSAGKKVAGEEKPKKARKSQAPAEAAGGRKS,16500
3,PRFLMYCKLGICQLVILRLFTSTFTIVLEMMGLFCPESMSWRFGHFWAVLFNF,63600
4,DSHHHDELGSEITLADNKFSYLPPTLEELMEEQDCNNGRSFKNFMFSNDTGID,54500
5,MRAKNLTWTTLIYFSTVLWFVGDLVTNNHVRLVGVWSECKLWILWFRVFFVYV,84300
6,MWWRADGHYLNPLSQIFFSCEFWFFLLLFQMGDGFAFFFFLSIGLVTSFFFFF,35400
7,NSGDEGDAGAAEVEAPKSKKKRGRAAKEEDDDEETPAPVPKKARGRAKKATKE,23700
8,MPIGPIIMLYPMRKHHSILPCKIQRLLEYLWSFLLIQKDWYRYEQTNKYSIMA,40100
9,IWDLWTFGGLDFWGLGFGIWDLGLGFGDWDFIYPPPLPVSVFFLLFLSFGVCW,56900
10,VFTDSLFQIVLVGRLTGFFYSFSFLFFFLSFFFFFSFIPFFPPFLYGLFFFLF,67600
11,IRYWTWMVWVIIIGSTLAFHVWIAIYSQFDVFTFESELFYLYTTLNFWTCIVF,57100
12,MFFLPFGIFFFFACFFSLFTFADSWLAVFLPDRFLLSFVLFNFAFFFFFFTTL,31900
13,ILLAAHQILFIFCCWLFTITVCIPLSVIYYLFAILRLIKHYLLHRRPLIAYFL,56900
14,FAGLSYFVYDLHTMLSSIVIICVIVADFLYFGSILLPALWLECPYRVPLLFRP,71900
15,HWDGVCRLFFFIYYIYFYFSMRACLLVLILCFESIVFGLVSFLVYLFSPFFFR,40900
16,AAGETVHFSARAEVLTSKFGRTSKLSPRFIILTEKAVYILLAAARDGRVVVQL,37700
17,ATNLFFTAAIFYFIFVVFGVILVLLYKALCELLIRSKKIGSESHLFHFIHNGW,44900

row,Sequence,transcriptional activation domain activity
1,MLLDPRVIPLIFSTLFLFLHFNFLPNFPPLPLSFHPRPTLLPPFCSLLFPLLF,80000
2,LLWFYFLFLFCIFCWWLRYASSLVPNICHIHVIHDLADAFMHIRFVLFISILS,72300
3,LILRMQVATLTKLWGLPPEFEIVCRDIWALHLSLLPDPPPPEPYYFHERGDGM,34400
4,EEGDMDVDEEEGTPTKKRKLSKEEKKALKKEKKKAAKDAAAAVSDYWIVCDQS,45200
5,ILLHIYVLGVCYFTFPLFLNGFAHWGLWKLDRITPVENLVQQYILKPYFKSYC,62900
6,RGKVVSRLRKVLQKTSFKPTRSLTDHWTWNEIAILIRFVLMLSFNNRGPVKSY,43200
7,GACLQDIAMVGFIDTNSIGCVASSVVLYLSLVFIIGVVAIRFFMAVMFQWFFS,35600
8,APPEGGDKSESKEPPKKEESAPTEAKPAEPKEENKPEAKQASNKETKPESSKP,23300
9,EEEVEEKKAKKEKKSKEDKEDKKAKKDKKSKKDKSKDADEDVERTNGHSTPAA,26100
10,LLFLPYSCASFFFSLFSLFYFFLFYFFLLFSHIRIFISLSIHFSSSCFSTFLL,58300
11,SRPSTAPKPAPNPSPETTVTSISTPSEKRKRGRKPKAKPVEVPVSQTSGADSL,20600
12,GESSSKPPKKRGRPRKNPLPPAEPSGADEGETSAPAAEPNPPKRKRGRPRKDS,34600
13,AKANGAAKAAAVKPKDDSSDSSDSDSESDEEKAPAKAKEAKKAEVCTCCLSTV,17500
14,ISYVSLEIRRTVFGLRLFAVAFYCTFFYWLMIRPNCKARFWCNFQPFSWIQAI,43100
15,DCSSILFSPLTTNTNNEFEGESDDFVHSPYLNSEADFSQILSSAPPVHHDPNE,72800
16,EQDNVDSTQQSSTGRVKRSREDSASGERLRSTSRSRSKSPSGRHKRSRRHRRS,36100
17,SFVAYFSALWRGKQHRMTGYPVYDFFMGAELNPRMFGILDFKMFFEVRMPWYI,51000
